This passage reports Kd results from the Immune Epitope Database (IEDB).

A value given as a limit tells only on which side of the number the result lay.

Experiment [1] has as its target HLA-A*02:01. Briefly: IEDB peptide-MHC binding, purified MHC/competitive/fluorescence; filed as Kd, often an IC50 or EC50 that approximates it; ≥ and ≤ were set here for values at or beyond the usual limits of such assays.
Experiment [2] has as its target HLA-A*02:03. Described as above.
Experiment [3] deals with HLA-A*02:11. The experiment is described as above.
The target of experiment [4] is HLA-A*02:12. The experiment is described as above. The following applies: source organism: Campylobacter jejuni subsp. jejuni NCTC 11168 = ATCC 700819.
For experiment [5], the target named is HLA-A*02:19. The experiment is described as above. The following applies: source organism: Campylobacter jejuni subsp. jejuni NCTC 11168 = ATCC 700819.
The target of experiment [6] is HLA-A*03:01. The experiment is described as above. Particulars: source organism: Campylobacter jejuni subsp. jejuni NCTC 11168 = ATCC 700819.
The target of experiment [7] is HLA-A*26:01. The experiment is described as above.
Experiment [8] addresses HLA-A*29:02. Described as above. Particulars: source organism: Campylobacter jejuni subsp. jejuni NCTC 11168 = ATCC 700819.
Experiment [9] concerns the target HLA-B*15:01. The description is as above. Particulars: source organism: Campylobacter jejuni subsp. jejuni NCTC 11168 = ATCC 700819.
For experiment [10], the target named is HLA-B*15:17. The experiment is described as above.
The target of experiment [11] is HLA-B*18:01. Described as above.
Experiment [12] has as its target HLA-B*27:03. The experiment is described as above.
For experiment [13], the target named is HLA-B*39:01. The description is as above.
Experiment [14] concerns the target HLA-B*46:01. Described as above.
For experiment [15], the target named is HLA-B*51:01. Described as above.
Experiment [16] deals with HLA-B*57:01. The experiment is described as above.
In experiment [17] the target is HLA-A*02:06. Described as above. Particulars: source organism: Human immunodeficiency virus 1.
The target in experiment [18] is HLA-A*02:01. The experiment can be described thus: IEDB peptide-MHC binding, purified MHC/direct/fluorescence; filed as Kd, often an IC50 or EC50 that approximates it; ≥ and ≤ were set here for values at or beyond the usual limits of such assays. The following applies: source organism: Giardia lamblia ATCC 50803.
The target in experiment [19] is HLA-A*02:03. The description is as above.
Experiment [20] deals with HLA-A*02:11. The description is as above.
In experiment [21] the target is HLA-A*02:12. Described as above.
Experiment [22] has as its target HLA-A*02:16. Described as above.
Experiment [23] has as its target HLA-A*02:19. The experiment is described as above.
The target in experiment [24] is HLA-A*03:01. Described as above.
The target of experiment [25] is HLA-A*23:01. Described as above.
The target of experiment [26] is HLA-A*24:03. Described as above. The following applies: source organism: Giardia lamblia ATCC 50803.
Experiment [27] concerns the target HLA-A*26:01. The experiment is described as above. The following applies: source organism: Giardia lamblia ATCC 50803.
In experiment [28] the target is HLA-A*29:02. Described as above.
For experiment [29], the target named is HLA-A*68:02. The experiment is described as above.
For experiment [30], the target named is HLA-A*69:01. The experiment is described as above. Particulars: source organism: Giardia lamblia ATCC 50803.
Experiment [31] has as its target HLA-B*15:01. The experiment is described as above. Particulars: source organism: Giardia lamblia ATCC 50803.
Experiment [32] addresses HLA-B*15:17. Described as above. Particulars: source organism: Giardia lamblia ATCC 50803.
Experiment [33] addresses HLA-B*18:01. The description is as above. The following applies: source organism: Giardia lamblia ATCC 50803.
Experiment [34] concerns the target HLA-B*27:03. The experiment is described as above. The following applies: source organism: Giardia lamblia ATCC 50803.
Experiment [35] has as its target HLA-B*39:01. Described as above. The following applies: source organism: Giardia lamblia ATCC 50803.
Experiment [36] deals with HLA-B*46:01. The experiment is described as above. The following applies: source organism: Giardia lamblia ATCC 50803.
The target in experiment [37] is HLA-B*51:01. The description is as above. Particulars: source organism: Giardia lamblia ATCC 50803.
For experiment [38], the target named is HLA-B*57:01. Described as above. Particulars: source organism: Giardia lamblia ATCC 50803.
Experiment [39] has as its target HLA-A*24:03. Briefly: IEDB peptide-MHC binding, purified MHC/competitive/fluorescence; filed as Kd, often an IC50 or EC50 that approximates it; ≥ and ≤ were set here for values at or beyond the usual limits of such assays. Particulars: source organism: Orthohantavirus delgaditoense.
In experiment [40] the target is HLA-A*69:01. The description is as above. Particulars: source organism: Orthohantavirus delgaditoense.
[41] abbreviates: source organism: Campylobacter jejuni subsp. jejuni NCTC 11168 = ATCC 700819.
Setting [42] is: source organism: Human immunodeficiency virus 1.
Where [43] appears, read: source organism: Giardia lamblia ATCC 50803.
The mark [44] stands for this setting: source organism: Toxoplasma gondii.
Setting [45] is: source organism: Rio Mearim virus.
The mark [46] stands for this setting: source organism: Orthohantavirus delgaditoense.

As a reminder, the Kd is the constant that tells how readily two partners part at equilibrium. A high value points to weaker binding. For FTFERSKIK, the Kd in experiment [1] (setting [41]) is at least 20 µM; in [2] (setting [41]) it was at least 20 µM; in [3] (setting [41]) it was at least 20 µM; in experiment [4] it was at least 20 µM; in experiment [5], at least 20 µM; in [6], 0.2 µM. Further, the Kd in experiment [7] (setting [41]), in experiment [8], in experiment [9], in experiment [10] (setting [41]), in experiment [11] (setting [41]) and in experiment [12] (setting [41]) was at least 20 µM throughout. Further, the Kd in experiment [13] (setting [41]), in [14] (setting [41]), in experiment [15] (setting [41]) and in [16] (setting [41]) was at least 20 µM throughout.
As for LNTVATLY, the Kd was 0.0559 µM in [1] (setting [42]); 0.291 µM in experiment [2] (setting [42]); 0.0564 µM in experiment [17]; 2.75 µM in experiment [10] (setting [42]); at least 20 µM in experiment [13] (setting [42]).
As to MHYGYNRAN, the Kd in experiment [18], in [19] (setting [43]), in [20] (setting [43]), in [21] (setting [43]), in experiment [22] (setting [43]) and in [23] (setting [43]) was at least 20 µM throughout. The Kd in experiment [24] (setting [43]), in experiment [25] (setting [43]), in experiment [26], in [27], in experiment [28] (setting [43]) and in experiment [29] (setting [43]) was at least 20 µM in each case. Besides, the Kd in experiment [30], in [31], in experiment [32], in experiment [33], in [34] and in experiment [35] was at least 20 µM throughout. The Kd in experiment [36], in [37] and in [38] was at least 20 µM throughout.
For SVVEENTMA, the Kd in experiment [1] (setting [44]) was at least 20 µM; in experiment [3] (setting [44]), 0.183 µM.
Take DWMERIEDF: the Kd in experiment [19] (setting [45]), in [20] (setting [45]), in [21] (setting [45]), in [22] (setting [45]), in experiment [23] (setting [45]) and in experiment [24] (setting [45]) was at least 20 µM in each case. Besides, the Kd in [25] (setting [45]), in experiment [28] (setting [45]), in experiment [29] (setting [45]), in experiment [1] (setting [46]), in experiment [39] and in [7] (setting [46]) was at least 20 µM throughout. Moreover, the Kd in experiment [40], in [10] (setting [46]), in experiment [11] (setting [46]), in [12] (setting [46]), in experiment [13] (setting [46]) and in [14] (setting [46]) was at least 20 µM each time. Further, the Kd in [15] (setting [46]) and in experiment [16] (setting [46]) was at least 20 µM each time.
